# Experimental data from US11795488B2, “Methods for enzymatic peptide ligation” (NANYANG TECHNOLOGICAL UNIVERSITY, priority 2016, dated 2023).
# B1: Cys247Ala: OaAEP1 Cys247Ala (Quicklase), Asx-specific peptide ligase having the amino acid sequence of SEQ ID NO:1 (protein, listed as Ovaloparmena affinis)
# chain: MVRYLAGAVLLLVVLSVAAAVSGARDGDYLHLPSEVSRFFRPQETNDDHGEDSVGTRWAVLIAGSKGYANYRHQAGVCHAYQILKRGGLKDENIVVFMYDDIAYNESNPRPGVIINSPHGSDVYAGVPKDYTGEEVNAKNFLAAILGNKSAITGGSGKVVDSGPNDHIFIYYTDHGAAGVIGMPSKPYLYADELNDALKKKHASGTYKSLVFYLEACESGSMFEGILPEDLNIYALTSTNTTESSWAYYCPAQENPPPPEYNVCLGDLFSVAWLEDSDVQNSWYETLNQQYHHVDKRISHASHATQYGNLKLGEEGLFVYMGSNPANDNYTSLDGNALTPSSIVVNQRDADLLHLWEKFRKAPEGSARKEEAQTQIFKAMSHRVHIDSSIKLIGKLLFGIEKCTEILNAVRPAGQPLVDDWACLRSLVGTFETHCGSLSEYGMRHTRTIANICNAGISEEQMAEAASQACASIP
# Key:
# [1] = system: ubiquitin with C-terminal Asn-Gly-Leu and peptide having N-terminal residues GlyLeu; assay: Ligation of ubiquitin with a peptide; type: biochemical
# Method: (§1) (a) Fluorescence detection using 02 benzylcytosine-Alexa647 of the SNAP protein and SDS PAGE analysis with Comassie blue staining detection of the protein substrate and ligated products. The reaction is schematically depicted as inset. Cys247Ala ligates well folded protein well. […] (b) As little as 30 nM Cys247Ala catalyze ligation of 100 μM Ubiquitin and 500 μM biotin labelled peptide efficiently in 30 min, at room temperature, in pH 7.4 PBS buffer.
# (§2) The ability of Cys247Ala to ligate ubiquitin with a peptide was first tested. The three residues“Asn-Gly-Leu” were added to the C-terminus of ubiquitin to make it recognizable by Cys247Ala. Another peptide having N-terminal residues GlyLeu was used as the add-on component. At a protein: peptide molar ratio of 1:5, Cys247Ala catalyzed the ligation of more than 90% ubiquitin with the peptide within 10 min (FIG. 6). An amount of 30 nM of Cys247Ala was enough for the reaction compared to 10-30 μM of sortase A typically required to perform productive ligations. […] Ubiquitin having the same “Asn-Gly-Leu” modification at its C-terminal end and a N-terminal modified SNAP (NEB) tag protein were used as substrates. […] Protein ligation can be performed within minutes at neutral pH and at room temperature.
# peptide substrate = assay: Comparison of cyclization efficiency of gate-keeper Cys247 mutants (MALDI-TOF MS); type: biochemical
# Method: (§3) Native and modified amino acids were purchased from Sigma-Aldrich (USA). All peptides used in this manuscript were synthesized in-house using the solid-phase method and HPLC purified. Cyclization assays were performed in 50-μl reaction mixtures containing 20 mM phosphate buffer, ligases (5 to 700 nM) and peptide substrates (10 to 300 μM). Each reaction was performed in triplicate at 37° C. and quenched by adding 5 μl of 1 M HCl solution. The peptides were separated by using a reversed-phase C18 analytical column (150×2.1 mm, Vydac) with a linear gradient from 10% to 50% acetonitrile over 15 min on a Nexera UHPLC system (Shimadzu). For kinetic analysis, the concentrations of WT OaAEP1, mutant OaAEP1, and butelase 1 were fixed at 700 nM, 50 nM, and 20 nM, respectively. The cyclization velocities were calculated by converting the HPLC-peak areas of remained linear precursors or the cyclized products into concentrations. The identity of each HPLC peak was analyzed by MALDI-TOF MS (ABI 4800 MALDI TOF/TOF). The velocities were input into GraphPad Prism (GraphPad Software, San Diego) to obtain the Michaelis-Menten curve and the kinetic parameters (kcat and Km). Comparison for the cyclization efficiency of various OaAEP1 mutants were performed in a volume of 20 μl of the reaction mixture and analyzed by MALDI-TOF MS after 10 mins or 1 hour ligation reaction.
# The pre-ligation conformation of OaAEP1 captured in the present structure was then analyzed to identify several key features that could differentiate an AEP protease from an AEP-like ligase. […] In contrast to AEP proteases, the surface of OaAEP1 facing the catalytic Cys217 appears to be more widely open. Three cysteine residues (Cys247, Cys250, Cys264) are aligned along a shallow cleft at the surface of the enzyme (FIGS. 3C and 3E). Unlike the surface of AEP proteases that contains several bulges, both butelase 1 (using a homology model based on OaAEP1b) and OaAEP1 have residues with smaller side-chains along this patch. A disulfide bond is formed between Cys250 and Cys264, which are conserved in AEP-like ligases butelase 1 and OaAEP1b. This covalent bond is likely to stabilize the local structure and provide an adequate surface allowing the approach of an N-terminal amine incoming group. Conversely, the corresponding surface patch of AEP proteases (PDB: 4AWA) is lined with residues having bulky side-chains like Tyr (FIG. 3E) blocking this channel. It was therefore hypothesized that residue Cys247 which is located at the extremity of the substrate channel is likely to function as a final nucleophile filter (or “gate-keeper”), allowing attack from the N-terminal amine to complete the ligation reaction. […]
# [2] = system: ubiquitin and SNAP tag protein; assay: Ligation of two well-folded proteins; type: biochemical
# Method: as §1, §2
# [3] = system: peptide substrate "GLPVSTKPVATRNGL" (SEQ ID NO: 18); assay: Peptide cyclization assay, kinetic analysis (HPLC/MS); type: biochemical
# Method: as §3
# The peptide cyclization activity of mature OaAEP1 was then analyzed using MS and the peptide substrate “[…]” (SEQ ID NO: 18) (FIG. 5A). The turn-over rate (kcat) for OaAEP1 is 0.052 s^−1, a value in good agreement with the previous report (Harris, K. S., et al., Nat Commun, 2015. 6: p. 10199). Likewise, the cyclization activity of butelase 1 extracted from plant was measured using the 15 residues peptide “[…]” (SEQ ID NO: 19) (FIG. 5A) leading to a kcat about 90 times faster than OaAEP1 b.
# HEK293T = assay: Cell surface labeling with fluorescently tagged SNAP protein; type: cell-based, human; conditions: 10 μM SNAP-NGL, 0.1 μM Quicklase, 30 minutes˜1 hour
# Method: (§4) (b) Fluorecently tagged SNAP (New England Biolabs) protein was conjugated to the intrinsic cellular surface proteins of two different cell lines, RAW cell ([…]) and HEK293T (human epithelial cell line). 10 μM modified SNAP protein (with additional C-terminal NGL residues, lane 1 sample) with or without (lane 2 and lane 5 samples) coincubation of 0.1 μM Quicklase were added to cell culture, pre-washed with PBS buffer. After 30 minutes˜1 hour incubation, cells were rinsed with additional PBS buffer (lane 3 and lane 6 were first wash samples), two times. The remaining cell was harvested and lysed with SDS loading buffer (lane 4 and 7 samples). All samples were examined using SDS-PAGE, and only the covalently fluorescently tagged SNAP protein carried the signal on the gel, which were shown as dark bands in (b). […] (c) Surface modified RAW cells were examined using a fluorescent microscope, bright spots on the cellular surface indicated successful surface labelling of intrinsic cellular membrane.
# (§5) 0.1 to 1 μM of OaAEP1 Cys247Ala was added to cellular culture in standard cell culture conditions. 1-20 μM labeling protein tags were added to the reaction afterwards, and incubated for 30-45 mins at 37° C. and standard culturing condition, before both excess enzymes and labelling tags were washed away. […]
# RAW cell = assay: as above; type: cell-based, human; conditions: 10 μM SNAP-NGL, 0.1 μM Quicklase, 30 minutes˜1 hour
# Method: as §4, §5
molecule,measurement,setting,value
B1,enzyme concentration that catalyzes ligation efficiently,"[1]; 100 μM Ubiquitin, 500 μM biotin labelled peptide, 30 min, room temperature, pH 7.4 PBS",30 nM
same,ubiquitin ligated with the peptide,"[1]; protein: peptide molar ratio 1:5, within 10 min",more than 90%
same,amount of enzyme enough for the reaction,[1]; ubiquitin-peptide ligation,30 nM
same,alternative reaction when N-terminal amine is not available,peptide substrate; N-terminal amine group acetylated,side chain ligation is more preferred
same,ligase activity compared to WT OaAEP1,peptide substrate; gate-keeper position 247 mutants,significantly improved enzymatic properties
same,protein ligation activity (control ligation experiments),[2],protein ligation activity could only be observed in the presence of the Cys247Ala protein
same,individual substrate proteins ligated into a single polypeptide product,"[2]; 5 μM SNAP tag protein, 8 μM ubiquitin, 100 nM enzyme",more than 60%
same,ligation of SNAP tag protein with Ubiquitin,"[2]; 5 μM SNAP tag, 100 nM Cys247Ala, 4000 nM wild type OaAEP1b",efficiently ligated
same,kcat relative to WT OaAEP1b,[3],approximately 160 times
same,peptide ligase catalytic activity relative to wild type OaAEP1,[3],~160 times
same,conjugation of SNAP protein to intrinsic cellular surface proteins,HEK293T,significant amount of intrinsic proteins in RAW and HEK283T cells were conjugated with SNAP protein
same,conjugation of SNAP protein to intrinsic cellular surface proteins,RAW cell,significant amount of intrinsic proteins in RAW and HEK283T cells were conjugated with SNAP protein
